Results taken from paper PMC11368889 (2024).

Biological target: Histone H3 (H3K9me3) (Homo sapiens, UniProt P68431)
Experiment: fluorescence microscopy titration in fixed HEK293 cells (Hill1 fit)

Kd: 490 nM
B1: MPP8-Green (MPP8-mNeonGreen-NLS-MPP8) 55-117 (protein)
chain: GEDVFEVEKILDMKTEGGKVLYKVRWKGYTSDDDTWEPEIHLEDCKEVLLEFRKKIAENKAKA
